Laboratory results: patent publication US20070225207A1 (NOVOZYMES A S, published 2007)

Molecular target: IgE of dust mite allergic patient Donor 11 (serum IgE; IgE on the donor's basophils in the histamine release …)
Experiment: cell-based or functional assay

potency to induce histamine release in human basophil assay, relative to nDer p 1: 20 fold
B1: Der p 1 variant DP060 (S54N, Q68F) (other)
chain: TNACSINGNAPAEIDLRQMRTVTPIRMQGGCGSCWAFSGVAATESAYLAYRNQNLDLAEQELVDCASFHGCHGDTIPRGIEYIQHNGVVQESYYRYVAREQSCRRPNAQRFGISNYCQIYPPNVNKIREALAQTHSAIAVIIGIKDLDAFRHYDGRTIIQRDNGYQPNYHAVNIVGYSNAQGVDYWIVRNSWDTNWGDNGYGYFAANIDLMMIEEYPYVVIL
